The Kd is the constant that tells how readily two partners part at equilibrium.

Our source for the Kd values is patent US20220332804A1 (CSL INNOVATION, published 2022).

Experiment in all cases: SPR, antibody captured, C2 as analyte;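 note: biacore SPR at 37 °C, anti-C2 mAbs captured via goat anti-human IgG on CM5 chips, double-referenced sensorgrams fit to a 1:1 kinetic or steady-state model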
In general terms: Surface plasmon resonance follows binding to a sensor surface in real time, without labels.

For assay [1], the target named is T1, human C2 M452A (human, UniProt P06681 21-752).
T1 sequence: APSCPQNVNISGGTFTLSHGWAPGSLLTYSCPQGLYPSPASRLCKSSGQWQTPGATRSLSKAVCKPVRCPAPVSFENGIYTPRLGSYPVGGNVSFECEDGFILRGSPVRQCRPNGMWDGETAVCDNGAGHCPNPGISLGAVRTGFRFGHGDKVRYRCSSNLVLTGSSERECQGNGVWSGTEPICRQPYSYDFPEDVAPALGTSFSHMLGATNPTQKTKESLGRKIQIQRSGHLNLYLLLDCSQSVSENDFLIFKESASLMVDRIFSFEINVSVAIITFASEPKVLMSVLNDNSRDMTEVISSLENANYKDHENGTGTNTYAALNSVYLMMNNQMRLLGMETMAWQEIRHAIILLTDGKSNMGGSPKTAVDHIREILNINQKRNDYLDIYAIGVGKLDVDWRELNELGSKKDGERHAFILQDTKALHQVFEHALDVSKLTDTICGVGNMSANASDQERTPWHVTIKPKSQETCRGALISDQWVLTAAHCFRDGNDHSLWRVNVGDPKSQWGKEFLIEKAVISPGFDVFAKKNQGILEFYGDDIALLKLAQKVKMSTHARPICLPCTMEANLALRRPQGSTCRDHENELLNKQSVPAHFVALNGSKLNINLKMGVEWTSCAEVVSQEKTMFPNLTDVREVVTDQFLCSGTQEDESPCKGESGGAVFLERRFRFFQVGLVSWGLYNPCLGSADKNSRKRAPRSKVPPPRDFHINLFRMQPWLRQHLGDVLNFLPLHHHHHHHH

Assay [2] deals with T2, human C2 K721A (human, UniProt P06681 21-752).
T2 sequence: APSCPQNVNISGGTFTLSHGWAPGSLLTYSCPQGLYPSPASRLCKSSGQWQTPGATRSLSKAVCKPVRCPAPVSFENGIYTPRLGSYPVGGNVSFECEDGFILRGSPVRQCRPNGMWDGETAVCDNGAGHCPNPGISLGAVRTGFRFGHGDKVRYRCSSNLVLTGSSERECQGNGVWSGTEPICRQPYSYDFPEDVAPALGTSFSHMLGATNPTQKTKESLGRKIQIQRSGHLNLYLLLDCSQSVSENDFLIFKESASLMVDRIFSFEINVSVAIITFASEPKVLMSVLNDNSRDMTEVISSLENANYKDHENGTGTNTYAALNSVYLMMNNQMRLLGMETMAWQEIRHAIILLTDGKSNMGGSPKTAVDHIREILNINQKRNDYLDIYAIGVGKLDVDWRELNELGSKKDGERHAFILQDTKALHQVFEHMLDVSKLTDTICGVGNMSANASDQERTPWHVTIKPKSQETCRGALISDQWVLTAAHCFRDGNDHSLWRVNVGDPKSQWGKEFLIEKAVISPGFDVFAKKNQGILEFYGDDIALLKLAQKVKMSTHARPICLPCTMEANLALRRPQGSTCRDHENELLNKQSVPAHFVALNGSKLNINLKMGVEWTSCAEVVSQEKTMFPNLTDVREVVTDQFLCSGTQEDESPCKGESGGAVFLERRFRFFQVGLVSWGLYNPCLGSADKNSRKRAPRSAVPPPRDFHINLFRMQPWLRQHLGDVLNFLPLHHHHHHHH

Assay [3] addresses T3, human C2 S713A (human, UniProt P06681 21-752).
T3 sequence: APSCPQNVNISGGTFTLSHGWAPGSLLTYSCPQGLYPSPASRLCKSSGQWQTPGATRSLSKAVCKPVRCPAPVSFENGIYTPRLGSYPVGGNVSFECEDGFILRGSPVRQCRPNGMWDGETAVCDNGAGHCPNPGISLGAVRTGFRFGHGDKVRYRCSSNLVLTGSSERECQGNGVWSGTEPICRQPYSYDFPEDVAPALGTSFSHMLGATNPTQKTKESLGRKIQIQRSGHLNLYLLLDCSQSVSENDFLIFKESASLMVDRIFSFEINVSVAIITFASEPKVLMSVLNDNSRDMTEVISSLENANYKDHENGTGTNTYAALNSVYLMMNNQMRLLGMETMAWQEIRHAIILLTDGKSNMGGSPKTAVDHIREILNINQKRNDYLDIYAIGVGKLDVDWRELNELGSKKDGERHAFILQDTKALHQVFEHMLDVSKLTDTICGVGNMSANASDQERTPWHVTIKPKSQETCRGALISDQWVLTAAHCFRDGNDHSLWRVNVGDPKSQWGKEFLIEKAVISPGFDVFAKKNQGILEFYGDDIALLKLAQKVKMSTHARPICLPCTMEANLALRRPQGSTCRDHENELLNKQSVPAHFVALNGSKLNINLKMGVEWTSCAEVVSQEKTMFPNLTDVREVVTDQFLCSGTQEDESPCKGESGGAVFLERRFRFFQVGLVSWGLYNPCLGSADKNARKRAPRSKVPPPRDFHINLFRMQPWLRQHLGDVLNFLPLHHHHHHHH

Assay [4] concerns the target T4, human C2 S473A (human, UniProt P06681 21-752).
T4 sequence: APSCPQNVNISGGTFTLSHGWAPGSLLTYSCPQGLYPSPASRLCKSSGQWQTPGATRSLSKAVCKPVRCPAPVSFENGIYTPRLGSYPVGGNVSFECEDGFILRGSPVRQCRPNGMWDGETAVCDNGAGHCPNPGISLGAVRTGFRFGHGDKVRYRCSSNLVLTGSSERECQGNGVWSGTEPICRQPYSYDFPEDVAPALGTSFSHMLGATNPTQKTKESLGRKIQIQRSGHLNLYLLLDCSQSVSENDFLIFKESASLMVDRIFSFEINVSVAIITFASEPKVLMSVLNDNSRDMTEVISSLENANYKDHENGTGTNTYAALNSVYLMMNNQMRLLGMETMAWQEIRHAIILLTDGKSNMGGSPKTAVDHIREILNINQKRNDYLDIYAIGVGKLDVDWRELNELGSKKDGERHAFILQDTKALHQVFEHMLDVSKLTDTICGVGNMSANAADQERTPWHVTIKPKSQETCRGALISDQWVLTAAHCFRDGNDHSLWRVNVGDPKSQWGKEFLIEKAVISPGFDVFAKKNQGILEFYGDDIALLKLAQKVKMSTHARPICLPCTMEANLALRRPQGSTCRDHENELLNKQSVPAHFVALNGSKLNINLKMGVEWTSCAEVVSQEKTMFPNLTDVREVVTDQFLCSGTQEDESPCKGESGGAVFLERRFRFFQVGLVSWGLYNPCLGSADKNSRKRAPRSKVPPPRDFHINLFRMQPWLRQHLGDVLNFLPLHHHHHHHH

B1: RF16-226 (antibody, human IgG4 S228P, lambda)
heavy: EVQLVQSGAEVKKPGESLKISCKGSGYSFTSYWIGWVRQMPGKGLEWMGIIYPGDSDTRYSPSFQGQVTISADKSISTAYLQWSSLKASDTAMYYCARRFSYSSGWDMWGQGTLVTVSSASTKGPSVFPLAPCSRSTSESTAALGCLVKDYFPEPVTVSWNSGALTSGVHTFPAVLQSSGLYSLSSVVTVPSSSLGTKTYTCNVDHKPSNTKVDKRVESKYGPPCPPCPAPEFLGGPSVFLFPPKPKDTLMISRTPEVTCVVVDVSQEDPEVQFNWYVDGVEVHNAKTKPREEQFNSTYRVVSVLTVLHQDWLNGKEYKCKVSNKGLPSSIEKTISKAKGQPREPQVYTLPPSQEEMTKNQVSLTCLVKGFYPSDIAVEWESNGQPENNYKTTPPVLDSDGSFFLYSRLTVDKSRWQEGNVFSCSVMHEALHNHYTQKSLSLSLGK
light: SYELTQPPSVSVSPGQTARITCSGDALTSKYVAWYQQKSGLAPLLVIYEDTRRPSGIPAKFSGSSSGSVATLTISGAHGDDEADYYCYSTDASGHQRVFGGGTKLTVLSQPKAAPSVTLFPPSSEELQANKATLVCLISDFYPGAVTVAWKADGSPVKAGVETTKPSKQSNNKYAASSYLSLTPEQWKSHRSYSCQVTHEGSTVEKTVAPTECS
notes: pH-dependent anti-C2 antibody from a phage display library; also called WT
B1: the Kd in assay [1] came out at 4.1 nM; in assay [2], 99.9 nM; in assay [3], 19 nM; in assay [4], 14.2 nM.
